In this data set the test system is soybean plants. Briefly: Herbicide tolerance of transgenic soybean T1 plants (spraying, damage degree). In kind it is in vivo. Conditions: sprayed with tribenuron-methyl 144 g ai/ha, eight-fold field concentration. On the procedure: The degree of damage caused by the herbicide was measured for each plant according to the leaf curl degree and the growth point damage degree 3 days after spraying (3 DAT), 7 days after spraying (7 DAT), 14 days after spraying (14 DAT) and 21 days after spraying (21 DAT): the case where the leaves are flat as untreated plants and the growth points are intact is defined as having a damage degree of 0%; the case where veins are locally browned, new leaves are malformed and plant growth is slow is defined as having a damage degree of 50%; and the case where veins are purple, until the whole plant is dead and the growth points are browned and dry is defined as having a damage degree of 100%. The soybean plants into which the ALT02M1-01 nucleotide sequence was introduced were of three strains in total (S1, S2 and S3), the soybean plants into which the ALT02M2-01 nucleotide sequence was introduced were of three strains in total (S4, S5 and S6), the soybean plants into which the ALT02M3-01 nucleotide sequence was introduced were of three strains in total (S7, S8 and S9), the soybean plants into which the ALT02-01 nucleotide sequence was introduced were of three strains in total (S10, S11 and S12), the control soybean plants were of two strains in total (S13 and S14), and the wild-type soybean plants were of one strain in total (CK1); and 10-15 plants were selected from each strain and tested.

The text below walks through data of patent US12385058B2, “Herbicide tolerance protein, encoding gene thereof and use thereof” (Beijing Dabeinong Biotechnology Co., Ltd., priority 2018, dated 2025).

Changes are numbered by the printed parent chain.

B1: ALT02M2-01: nucleotide sequence SEQ ID NO: 29 encoding ALT02M2, based on soybean codon usage bias (nucleic acid)
DNA: ATGGAGACTGATAACGTGGAACTCGCCCAATCTAAGAGAAAGGTGGTGCTGGCTGAACAAGGGTCATTTTACATAGGGGGTAGGACTGTTACTGGTCCTGGCAAGTTTGATCCATCCAAACCTGTGATACCCTACAGTAACGAAGGAGCAACATTCTATATTAACCAAATGTATGTTAACTTCCAGGCCCCAGTGAGACCTAGGGGACTTCCATTGGTTTTCTGGCATGGAGGTGGCTTGACTGGTCACATCTGGGAGTCTACACCTGACGGCAGACCCGGGTTTCAAACCCTCTTCGTTCAGGATAGGCATACCGTGTACACTATTGACCAACCTGGGAGAGGAAGGGGTAACATCCCAACTTTTAACGGACCTTTCGGACAGTTGGAGGAAGAGAGTATTGTTAACACTGTGACAGGAAATGTATCAAAGGAAGGTGCCTGGGTGAGAGATAGGCTTGGCCCTGCTCCCGGGCAATTTTTCGAGAACTCTCAGTTTCCTAGAGGCTATGAAGACAATTACTTTAAGGAGATGGGATTCAGCCCATCTATATCCAGTGATGAAATTGTTGACGCTGTTGTGAAACTCGTGACCCATATTGGTCCTTGTGTTCTGGTGACTCACTCAGCATCCGGCGTTCTTGGGATGAGAGTGGCTACACACGCAAAGAATGTTAGGGGAATTGTGGCCTATGAACCAGCTACCTCAATCTTCCCCAAGGGAAAAGTTCCAGAGATACCACCTCTCGCTGATAAGAAAAGCCAAATCTTTCCCCCATTCGAAATACAGGAGTCTTACTTTAAGAAACTTGCCAAGATTCCAATCCAATTTGTTTTCGGAGATAACATCCCCAAGAATCCAAAATCAGCATATTGGTTCCTGGACTGGTGGAGAGTGACAAGATACGCACATAGTCTCAGCCTGGAGGCCATAAACAAATTGGGGGGACAAGCTTCCCTTTTGGATCTTCCTACTGCAGGATTGAGAGGTAATACACACTTTCCCTTCACCGATAGGAACAATGTTCAGGTGGCTTCTCTCCTGTCAGACTTTCTGGGTAAACACGGTCTGGATCAAAATGAGAGCAAACTCGCCGCCGCCCTGGAATGA
modifications: the ALT02M2-01 nucleotide sequence encoding the amino acid sequence corresponding to the herbicide tolerant protein ALT02M2 and based on the soybean codon usage bias
Turning to B1, the “herbicide tolerance compared with soybean plants into which ALT02-01 was introduced” value was “significantly increased tolerance to benzenesulfonic acid” and the “herbicide tolerance imparted to transgenic soybean plants” value (from here on “herbicide tolerance imparted”) was “impart transgenic soybean plants with the tolerance to benzenesulfonic acid”.

B2: ALT02M3-01: nucleotide sequence SEQ ID NO: 33 encoding ALT02M3, based on soybean codon usage bias (nucleic acid)
DNA: B1 DNA with C131G, C132A, T133G, A134C, G419C, A420C, G436C, T438A
modifications: the ALT02M3-01 nucleotide sequence encoding the amino acid sequence corresponding to the herbicide tolerant protein ALT02M3 and based on the soybean codon usage bias
With B2, the “herbicide tolerance compared with soybean plants into which ALT02-01 was introduced” value is given as “significantly increased tolerance to benzenesulfonic acid” and the “herbicide tolerance imparted” value is given as “impart transgenic soybean plants with the tolerance to benzenesulfonic acid”.

B3: ALT02-01: nucleotide sequence SEQ ID NO: 21 encoding ALT02, based on soybean codon usage bias (nucleic acid)
DNA: B1 DNA with G424T, T425C, A426T
modifications: the ALT02-01 nucleotide sequence encoding the amino acid sequence corresponding to the ALT02 and based on the soybean codon usage bias
On to B3, for which the “herbicide tolerance imparted” value is recorded as “impart transgenic soybean plants with the tolerance to benzenesulfonic acid”.
